Data reported in IntAct's records for PubMed 16501113.

B1: Probable early E4 11 kDa protein (Human adenovirus C serotype 5 (HAdV-5)), P04489 (parent)
chain: MIRCLRLKVEGALEQIFTMAGLNIRDLLRDILRRWRDENYLGMVEGAGMFIEEIHPEGFSLYVHLDVRAVCLLEAIVQHLTNAIICSLAVEFDHATGGERVHLIDLHFEVLDNLLE

Variants of: B1
Details: with PML

| Variant | effect of a mutation on the interaction |
| --- | --- |
| MIRALRLKVEGALEQIFTMAGLNIRDLLRDILRRWRDENYLGMVEGAGMFIEEIHPEGFSLYVHLDVRAVCLLEAIVQHLTNAIICSLAVEFDHATGGERVHLIDLHFEVLDNLLE [C4A] | decreasing interaction |
| MIRCLRLKVAGALEQIFTMAGLNIRDLLRDILRRWRDENYLGMVEGAGMFIEEIHPEGFSLYVHLDVRAVCLLEAIVQHLTNAIICSLAVEFDHATGGERVHLIDLHFEVLDNLLE [E10A] | decreasing interaction |
| MIRCLRLKVEGALEQIFTMAGLNIRDLLRDILRRWRDENYLGMVEGAGMFIEEIHPEGFSLYVHLDVRAVCLLAAIVQHLTNAIICSLAVEFDHATGGERVHLIDLHFEVLDNLLE [E74A] | decreasing interaction |
| MIRCLRLKVEGALEQIFTMAGLNIRDLLRDILRRWRDENYLGMVEGAGMFIEEIHPEGFSLYVHLDVRAVCLLEAIVQHLTAAIICSLAVEFDHATGGERVHLIDLHFEVLDNLLE [N82A] | disrupting interaction |

Variants of: B1
Details: with PML
Remark: another data set of the same source

| Variant | effect of a mutation on the interaction |
| --- | --- |
| MIRCLRLKVEGALEQIFTMAGLNIRDLLRDILRRWRDENYLGMVEGAGMFIEEIHPEGFSLYVHLDVRAVCLLEAIVQHLTNAIICSLAVEFDHATGGERVHAIDLHFEVLDNLLE [L103A] | disrupting interaction |
